Reference: publication PMC8930772, “Seipin forms a flexible cage at lipid droplet formation sites” (Nature Structural & Molecular Biology, 2022)

B1: yeast seipin Sei1 with C-terminal 3xFLAG-TEV-2xProteinA tag, purified from strain HAY60 (natural protein, S. cerevisiae, UniProt Q06058 1-285, looked up)
chain: MKINVSRPLQFLQWSSYIVVAFLIQLLIILPLSILIYHDFYLRLLPADSSNVVPLNTFNILNGVQFGTKFFQSIKSIPVGTDLPQTIDNGLSQLIPMRDNMEYKLDLNLQLYCQSKTDHLNLDNLLIDVYRGPGPLLGAPGGSNSKDEKIFHTSRPIVCLALTDSMSPQEIEQLGPSRLDVYDEEWLNTIRIEDKISLESSYETISVFLKTEIAQRNLIIHPESGIKFRMNFEQGLRNLMLRKRFLSYIIGISIFHCIICVLFFITGCTAFIFVRKGQEKSKKHS
notes: seipin Sei1 (Fld1), S. cerevisiae; tagged at the endogenous locus; The 2xProteinA part held the protein on IgG Sepharose and was cut off with TEV protease before SEC and cryo-EM; The deposited model holds residues 17-264 without 134-147; also called Fld1; source: S. cerevisiae strain HAY60, overproduced from the GAL1 promoter at the endogenous locus; purified (IgG Sepharose, TEV cleavage, …)
B2: seipin lumenal domain WT(47-235) with C-terminal 6xHis (domain or fragment, S. cerevisiae, UniProt Q06058 47-235, looked up)
chain: ADSSNVVPLNTFNILNGVQFGTKFFQSIKSIPVGTDLPQTIDNGLSQLIPMRDNMEYKLDLNLQLYCQSKTDHLNLDNLLIDVYRGPGPLLGAPGGSNSKDEKIFHTSRPIVCLALTDSMSPQEIEQLGPSRLDVYDEEWLNTIRIEDKISLESSYETISVFLKTEIAQRNLIIHPESGIKFRMNFEQG
notes: seipin Sei1, S. cerevisiae, lumenal domain lacking the TM segments, residues 47-235; also called WT lumenal domain; source: E. coli SHuffle T7 Express, purified (Ni-NTA), isolated in the absence of detergent; copies: 10

Columns and labels:
[1] = biological target: the molecule itself; assay: cryo-EM structure; purified Sei1-Ldb16 complex reconstituted in amphipol PmalC8, about 3.5 mg/ml; negative stain and cryo-EM; C10 then C5 symmetry
[2] = biological target: the molecule itself; assay: negative-stain EM; WT lumenal domain oligomers from the SEC, 2D class averages

Row | Protein | stoichiometry N [1] | stoichiometry N [2]
1 | B1 | 10 | –
2 | B2 | – | 10
